Results taken from patent publication US8986655.

Biological target: prostate-specific membrane antigen (PSMA), dimeric isoform (UniProt Q04609)
Test: phage-displayed ELISA on 1 µg/mL PSMA dimer, HRP activity

Chain of prostate-specific membrane antigen (PSMA), dimeric isoform (Q04609 44-750): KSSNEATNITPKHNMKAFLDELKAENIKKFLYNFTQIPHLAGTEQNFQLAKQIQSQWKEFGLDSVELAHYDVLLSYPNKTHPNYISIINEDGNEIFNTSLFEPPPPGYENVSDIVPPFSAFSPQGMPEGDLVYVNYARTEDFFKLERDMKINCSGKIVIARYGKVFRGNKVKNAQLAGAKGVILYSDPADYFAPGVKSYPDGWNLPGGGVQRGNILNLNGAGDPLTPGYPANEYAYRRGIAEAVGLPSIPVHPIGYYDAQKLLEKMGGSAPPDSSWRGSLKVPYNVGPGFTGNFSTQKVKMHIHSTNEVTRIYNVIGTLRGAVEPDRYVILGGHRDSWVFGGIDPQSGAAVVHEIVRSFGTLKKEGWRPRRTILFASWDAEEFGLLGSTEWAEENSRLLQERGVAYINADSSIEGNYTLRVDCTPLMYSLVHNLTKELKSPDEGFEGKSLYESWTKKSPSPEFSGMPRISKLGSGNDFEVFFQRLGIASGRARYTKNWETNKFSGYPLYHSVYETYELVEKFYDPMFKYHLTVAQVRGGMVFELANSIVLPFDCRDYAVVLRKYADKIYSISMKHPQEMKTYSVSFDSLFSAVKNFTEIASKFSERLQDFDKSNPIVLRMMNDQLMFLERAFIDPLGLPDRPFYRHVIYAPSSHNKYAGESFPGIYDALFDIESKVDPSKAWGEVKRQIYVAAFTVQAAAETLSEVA

## phage-displayed peptide 1, CALCEFLG [SEQ ID NO: 1]
  EC50 (read off the curve): 0.2 nM
